Laboratory results published in paper PMC3229523, “Identification of Lactoferricin B Intracellular Targets Using an Escherichia coli Proteome Chip” (PLoS ONE, 2011).
Ends that are not written are not given here. * marks the point of attachment. Biotin = O=C1N[C@H]2[C@H](CS[C@H]2CCCCC(=O)*)N1

Columns and labels:
Experiment in all cases: peptide or protein array; E. coli proteome chip: purified His-tagged proteins printed in duplicate on Fullmoon slides, blocked with 1% BSA; 10 nM N-terminal biotinylated LfcinB with 1% BSA, room temperature, 1 h; detected with DyLight 649-labeled streptavidin, ratio to DyLight 549-labeled anti-His antibody; ProCAT normalisation, local cut-off; triplicate chips
Details in all cases: both partners purified
[1] = biological target: T1, YqhC (E. coli K-12, UniProt Q46855 1-318)
T1 construct: YqhC, E. coli K-12
T1 sequence (looked up): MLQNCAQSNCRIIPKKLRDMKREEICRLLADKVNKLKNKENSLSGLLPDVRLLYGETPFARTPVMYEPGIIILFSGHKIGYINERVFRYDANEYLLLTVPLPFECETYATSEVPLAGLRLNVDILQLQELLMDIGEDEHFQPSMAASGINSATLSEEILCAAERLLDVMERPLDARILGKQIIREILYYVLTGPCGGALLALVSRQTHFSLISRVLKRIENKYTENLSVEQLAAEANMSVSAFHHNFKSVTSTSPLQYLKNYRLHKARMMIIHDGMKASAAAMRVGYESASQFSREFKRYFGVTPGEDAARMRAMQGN

[2] = biological target: T2, InfC (E. coli K-12, UniProt P0A707 1-180)
T2 construct: InfC, E. coli K-12
T2 sequence (looked up): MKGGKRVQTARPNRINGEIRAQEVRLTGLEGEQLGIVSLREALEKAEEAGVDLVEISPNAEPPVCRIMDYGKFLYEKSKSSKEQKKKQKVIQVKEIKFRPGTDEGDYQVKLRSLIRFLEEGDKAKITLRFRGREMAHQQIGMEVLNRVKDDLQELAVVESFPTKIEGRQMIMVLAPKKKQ

[3] = biological target: T3, Rob (E. coli K-12, UniProt P0ACI0 1-289)
T3 construct: Rob, E. coli K-12
T3 sequence (looked up): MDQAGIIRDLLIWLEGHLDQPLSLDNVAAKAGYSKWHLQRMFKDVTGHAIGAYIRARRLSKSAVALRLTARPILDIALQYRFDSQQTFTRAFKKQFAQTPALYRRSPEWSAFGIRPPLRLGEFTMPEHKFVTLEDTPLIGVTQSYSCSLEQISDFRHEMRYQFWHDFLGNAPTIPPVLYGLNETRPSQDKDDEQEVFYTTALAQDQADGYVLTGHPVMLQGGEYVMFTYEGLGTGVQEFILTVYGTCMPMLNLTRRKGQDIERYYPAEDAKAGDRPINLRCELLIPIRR

[4] = biological target: T4, GlgS (E. coli K-12, UniProt P26649 1-66)
T4 construct: GlgS, E. coli K-12
T4 sequence (looked up): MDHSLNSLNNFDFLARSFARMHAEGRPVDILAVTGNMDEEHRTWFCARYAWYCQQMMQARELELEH

[5] = biological target: T5, YdaU (E. coli K-12, UniProt P76065 1-285)
T5 construct: YdaU, E. coli K-12
T5 sequence (looked up): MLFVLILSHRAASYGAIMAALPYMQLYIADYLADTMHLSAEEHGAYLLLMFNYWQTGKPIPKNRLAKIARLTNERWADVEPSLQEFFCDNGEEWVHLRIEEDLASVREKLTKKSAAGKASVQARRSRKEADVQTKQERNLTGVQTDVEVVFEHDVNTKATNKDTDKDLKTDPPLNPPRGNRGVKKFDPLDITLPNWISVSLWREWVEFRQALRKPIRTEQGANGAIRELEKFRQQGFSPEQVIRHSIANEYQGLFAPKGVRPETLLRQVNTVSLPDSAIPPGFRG

[6] = biological target: T6, YjhI (E. coli K-12, UniProt P39360 1-262)
T6 construct: YjhI, E. coli K-12
T6 sequence (looked up): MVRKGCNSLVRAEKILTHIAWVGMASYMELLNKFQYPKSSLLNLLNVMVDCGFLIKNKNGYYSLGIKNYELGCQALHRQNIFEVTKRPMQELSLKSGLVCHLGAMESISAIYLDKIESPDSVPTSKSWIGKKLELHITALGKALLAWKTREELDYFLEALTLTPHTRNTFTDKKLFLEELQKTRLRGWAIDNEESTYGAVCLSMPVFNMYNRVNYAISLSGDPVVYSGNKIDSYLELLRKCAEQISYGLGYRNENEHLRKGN

[7] = biological target: T7, ribonucleoside-diphosphate reductase 2, β subunit (E. coli K-12, UniProt P37146 1-319)
T7 construct: NrdF, ribonucleoside-diphosphate reductase 2, β subunit, E. coli K-12; no measurement of the oligomer here; also called NrdF

Measured: binding result

T7 sequence (P37146 whole entry): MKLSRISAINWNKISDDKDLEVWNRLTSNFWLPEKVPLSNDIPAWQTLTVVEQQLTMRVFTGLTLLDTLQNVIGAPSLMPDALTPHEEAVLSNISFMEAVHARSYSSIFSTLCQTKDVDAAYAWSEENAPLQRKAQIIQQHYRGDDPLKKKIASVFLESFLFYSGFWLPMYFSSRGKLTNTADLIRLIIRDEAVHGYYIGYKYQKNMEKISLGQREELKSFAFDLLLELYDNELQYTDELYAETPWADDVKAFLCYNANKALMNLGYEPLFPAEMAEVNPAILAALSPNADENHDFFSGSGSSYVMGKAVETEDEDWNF

B1: N-terminal biotinylated Lactoferricin B (peptide, UniProt P24627 36-60, looked up)
peptide: Biotin-FKCRRWQWRMKKLGAPSITCVRRAF
modifications: ends and bridges not checked
notes: lactoferricin B (LfcinB), cationic antimicrobial peptide of 25 amino acids; also called biotinylated LfcinB; biotin-labeled LfcinB; source: bought: Kelowna Inc
binds: all assays above
